From PMC10617019 (Nature cell biology, 2023)
Where no end group is shown, it is not given here. [ ]: non-standard residue; d: D form. Hyp = O=C(O)[C@@H]1C[C@@H](O)CN1

Biological target: pVHL in complex with elongin C and elongin B (VCB) (human, UniProt P40337 55-213; Q15370 1-118)
Assay: fluorescence polarisation

TLYYMA[Hyp]EHLNDVNA (also: FITC label, position not given here) [Fluorescein isothiocyanate-labelled RIPK1 peptide T189LYYMA(Hyp)EHLNDVNA203]
Kd: 5.9 µM
